# B1: Rho-myc-mOREG (mouse olfactory receptor for eugenol with Rho tag and myc epitope tag) (receptor)
# chain: MNGTEGPNFYVPFSNKTGVVEQKLISEEDLEFMTLSDGNHSGAVFTLLGFSDYPELTIPLFLIFLTIYSITVVGNIGMIVIIRINPKLHIPMYFFLSHLSFVDFCYSSIVAPKMLVNLVTMNRGISFVGCLVQFFFFCTFVVTESFLLGVMAYDRFVAIRNPLLYTVAMSQRLCAMLVLGSYAWGVVCSLILTCSALNLSFYGFNMINHFFCEFSSLLSLSRSDTSVSQLLLFVFATFNEISTLLIILLSYVLIVVTILKMKSASGRRKAFSTCASHLTAITIFHGTILFLYCVPNSKNSRHTVKVASVFYTVVIPMLNPLIYSLRNKDVKDTVKKIIGTKVYSS
# B2: Rho-mOREG (mouse olfactory receptor for eugenol with N-terminal Rho tag) (receptor)
# chain: MNGTEGPNFYVPFSNKTGVVMTLSDGNHSGAVFTLLGFSDYPELTIPLFLIFLTIYSITVVGNIGMIVIIRINPKLHIPMYFFLSHLSFVDFCYSSIVAPKMLVNLVTMNRGISFVGCLVQFFFFCTFVVTESFLLGVMAYDRFVAIRNPLLYTVAMSQRLCAMLVLGSYAWGVVCSLILTCSALNLSFYGFNMINHFFCEFSSLLSLSRSDTSVSQLLLFVFATFNEISTLLIILLSYVLIVVTILKMKSASGRRKAFSTCASHLTAITIFHGTILFLYCVPNSKNSRHTVKVASVFYTVVIPMLNPLIYSLRNKDVKDTVKKIIGTKVYSS
# B3: chimeric olfactory receptor chimera1 (receptor)
# chain: MNGTEGPNFYVPFSNKTGVVEQKLISEEDLEFMTLSDGNHSGAVFTLLGFSDYPELTIPLFLIFLTIYSITVVGNIGMIVIIRINPKLHIPMYFFLSHLSFVDFCYSSIVAPKMLVNLVTMNRGISFVGCLVQFFFFCTFVVTESFLLGVMAYDRFVAIRNPLLYTVAMSQRLCAMLVLGSYAWGVVCSLILTCSALNLSFYGFNMINHFFCEFSSLLSLSRSDTSVSQLLLFVFATFNEISTLLIILLSYVLIVVTILKMKSASGRRKAFSTCASHLTAITIFHGTILFLYCVPNSKNSRHTVKVASVFYTVVIPMLNPLIYSLRNKDFRKAFQRLLCCARRAACRRRAAHGDRPRASGCLARAGPPPSPGAPSDDDDDDAGATPPARLLEPWAGCNGGTTTVDSDSSLDEPGRQGFSSESKV
# B4: chimeric olfactory receptor chimeraTM7 (receptor)
# chain: MNGTEGPNFYVPFSNKTGVVEQKLISEEDLEFMTLSDGNHSGAVFTLLGFSDYPELTIPLFLIFLTIYSITVVGNIGMIVIIRINPKLHIPMYFFLSHLSFVDFCYSSIVAPKMLVNLVTMNRGISFVGCLVQFFFFCTFVVTESFLLGVMAYDRFVAIRNPLLYTVAMSQRLCAMLVLGSYAWGVVCSLILTCSALNLSFYGFNMINHFFCEFSSLLSLSRSDTSVSQLLLFVFATFNEISTLLIILLSYVLIVVTILKMKSASGRRKAFSTCASHLTAITIFHGTILFLYCVPNSKNSRHTPDRLFVFFNWLGYANSAFNPIIYCRSPDFRKAFQRLLCCARRAACRRRAAHGDRPRASGCLARAGPPPSPGAPSDDDDDDAGATPPARLLEPWAGCNGGTTTVDSDSSLDEPGRQGFSSESKV
# B5: chimeric olfactory receptor chimeraIC3 (receptor)
# chain: MNGTEGPNFYVPFSNKTGVVEQKLISEEDLEFMTLSDGNHSGAVFTLLGFSDYPELTIPLFLIFLTIYSITVVGNIGMIVIIRINPKLHIPMYFFLSHLSFVDFCYSSIVAPKMLVNLVTMNRGISFVGCLVQFFFFCTFVVTESFLLGVMAYDRFVAIRNPLLYTVAMSQRLCAMLVLGSYAWGVVCSLILTCSALNLSFYGFNMINHFFCEFSSLLSLSRSDTSVSQLLLFVFATFNEISTLLIILLSYVFREAQKQVKKIDSCERRFLSGPPRPPSPAPSPSPGPPRPADSLANGRSSKRRPSRLVALREQKAFSTCASHLTAITIFHGTILFLYCVPNSKNSRHTVKVASVFYTVVIPMLNPLIYSLRNKDVKDTVKKIIGTKVYSS
# B6: chimeric olfactory receptor chimera3 (receptor)
# chain: MNGTEGPNFYVPFSNKTGVVEQKLISEEDLEFMGAGALALGASEPCNLSSAAPLPDGAATAARLLVLASPPASLLPPASEGSAPLSQQWTAGMGLLLALIVLLIVVGNVLVIVAIAKTPRLQTLTNLTRPMYFFLSHLSFVDFCYSSIVAPKMLVNLVTMNRGISFVGCLVQFFFFCTFVVTESFLLGVMAYDRFVAIRNPLLYTVAMSQRLCAMLVLGSYAWGVVCSLILTCSALNLSFYGFNMINHFFCEFSSLLSLSRSDTSVSQLLLFVFATFNEISTLLIILLSYVLIVVTILKMKSASGRRKAFSTCASHLTAITIFHGTILFLYCVPNSKNSRHTVKVASVFYTVVIPMLNPLIYSLRNKSRDFRKAFQRLLCCARRAACRRRAAHGDRPRASGCLARAGPPPSPGAPSDDDDDDAGATPPARLLEPWAGCNGGTTTVDSDSSLDEPGRQGFSSESKV
# B7: chimeric olfactory receptor chimeraIC3-IC4 (receptor)
# chain: MNGTEGPNFYVPFSNKTGVVEQKLISEEDLEFMTLSDGNHSGAVFTLLGFSDYPELTIPLFLIFLTIYSITVVGNIGMIVIIRINPKLHIPMYFFLSHLSFVDFCYSSIVAPKMLVNLVTMNRGISFVGCLVQFFFFCTFVVTESFLLGVMAYDRFVAIRNPLLYTVAMSQRLCAMLVLGSYAWGVVCSLILTCSALNLSFYGFNMINHFFCEFSSLLSLSRSDTSVSQLLLFVFATFNEISTLLIILLSYVFREAQKQVKKIDSCERRFLSGPPRPPSPAPSPSPGPPRPADSLANGRSSKRRPSRLVALREQKAFSTCASHLTAITIFHGTILFLYCVPNSKNSRHTVKVASVFYTVVIPMLNPLIYSLRNKDFRKAFQRLLCCARRAACRRRAAHGDRPRASGCLARAGPPPSPGAPSDDDDDDAGATPPARLLEPWAGCNGGTTTVDSDSSLDEPGRQGFSSESKV
# Target: Gαolf (G protein alpha subunit which is specifically expressed on an olfactory epithelium) (mouse) (UniProt Q8CGK7)
# Test: not given
row,Molecule,"concentration of cAMP (EIA, normalised to protein) after isoproterenol"
1,beta-1 adrenergic receptor (β1AR),0.956 pmol/µg

# Target: Gαolf (G protein alpha subunit which is specifically expressed on an olfactory epithelium) (mouse, UniProt Q8CGK7)
# Test: cell-based or functional assay
row,Molecule,concentration increase value of the cAMP (300 µM eugenol minus 0 µM)
1,B1,0.0109 pmol/microgram
2,B2,0.0061 pmol/microgram
3,B3,0.0185 pmol/microgram
4,B4,0.0056 pmol/microgram
5,B5,0.0017 pmol/microgram
6,B6,0.0009 pmol/microgram
7,B7,0.004 pmol/microgram
